Target: C-terminal peptide of cystic fibrosis transmembrane conductance regulator (CFTR), F-Ahx-VQDTLR
Assay: fluorescence polarisation

Binder | Kd [µM]
NHERF1 PDZ1 domain (N-terminal PDZ domain of NHERF1/EBP50), wild type (domain or fragment) LPRLCCLEKGPNGYGFHLHGEKGKLGQYIRLVEPGSPAEKAGLLAGDRLVEVNGENVEKETHQQVVSRIRAALNAVRLLVVDPETDEQL | 13
NHERF1 PDZ1 domain Y38A/R40A (domain or fragment) LPRLCCLEKGPNGYGFHLHGEKGKLGQAIALVEPGSPAEKAGLLAGDRLVEVNGENVEKETHQQVVSRIRAALNAVRLLVVDPETDEQL | 14
NHERF1 PDZ1 domain K32A/K34A (domain or fragment) LPRLCCLEKGPNGYGFHLHGEAGALGQYIRLVEPGSPAEKAGLLAGDRLVEVNGENVEKETHQQVVSRIRAALNAVRLLVVDPETDEQL | 13
